Laboratory results as given in paper PMC9338922, “DltC acts as an interaction hub for AcpS, DltA and DltB in the teichoic acid D-alanylation pathway of Lactiplantibacillus plantarum” (Scientific Reports, 2022).

T1: DltA-∆P-loop mutant, C-terminal His6 tag (Lactiplantibacillus plantarum, UniProt Q88VM6 1-508, missing the loop region comprised between T152 and K160)
T1 construct: DltA of Lactiplantibacillus plantarum, full length but missing the P-loop region comprised between Thr152 and Lys160, cloned in pT7-7; source: E. coli BL21 (DE3), purified (Ni-NTA, SEC)
T1 sequence (looked up): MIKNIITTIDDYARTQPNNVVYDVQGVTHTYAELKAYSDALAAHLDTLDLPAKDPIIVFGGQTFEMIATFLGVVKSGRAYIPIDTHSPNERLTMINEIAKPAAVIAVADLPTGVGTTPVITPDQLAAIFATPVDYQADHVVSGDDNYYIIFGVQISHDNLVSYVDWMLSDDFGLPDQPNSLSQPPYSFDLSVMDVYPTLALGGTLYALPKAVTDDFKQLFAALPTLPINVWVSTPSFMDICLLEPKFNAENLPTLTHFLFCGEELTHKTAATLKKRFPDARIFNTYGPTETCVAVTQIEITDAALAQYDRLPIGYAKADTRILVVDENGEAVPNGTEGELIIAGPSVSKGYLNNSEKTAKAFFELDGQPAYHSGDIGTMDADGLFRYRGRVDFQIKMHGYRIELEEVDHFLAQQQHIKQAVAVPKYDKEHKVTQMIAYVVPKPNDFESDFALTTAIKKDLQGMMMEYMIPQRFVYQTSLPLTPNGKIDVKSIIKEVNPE

T2: L. plantarum DltA, full-length wild type, C-terminal His6 tag (Lactiplantibacillus plantarum, UniProt Q88VM6 1-508)
T2 construct: DltA (D-alanine-D-alanyl carrier protein ligase) of Lactiplantibacillus plantarum, full-length wild type, 508 residues, cloned in pT7-7; the C-terminal domain is not visible; also called LpDltA; D-alanine-D-alanyl carrier protein ligase; source: E. coli BL21 (DE3), purified (Ni-NTA, SEC)
T2 sequence (looked up): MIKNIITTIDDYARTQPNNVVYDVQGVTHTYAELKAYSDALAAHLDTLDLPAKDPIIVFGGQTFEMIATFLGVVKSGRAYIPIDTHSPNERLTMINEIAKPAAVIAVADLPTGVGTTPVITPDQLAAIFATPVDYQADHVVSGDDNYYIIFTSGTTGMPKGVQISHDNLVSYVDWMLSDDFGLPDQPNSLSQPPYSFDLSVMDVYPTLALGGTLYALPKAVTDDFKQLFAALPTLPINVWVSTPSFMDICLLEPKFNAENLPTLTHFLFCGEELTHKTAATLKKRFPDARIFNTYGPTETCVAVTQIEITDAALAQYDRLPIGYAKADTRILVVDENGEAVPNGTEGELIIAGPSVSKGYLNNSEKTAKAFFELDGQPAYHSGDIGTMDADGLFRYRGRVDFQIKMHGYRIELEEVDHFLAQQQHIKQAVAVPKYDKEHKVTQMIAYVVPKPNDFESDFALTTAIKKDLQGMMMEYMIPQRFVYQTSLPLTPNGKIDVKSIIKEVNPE

T3: DltA-∆P-loop mutant, C-terminal His6 tag (Lactiplantibacillus plantarum, UniProt Q88VM6 1-508, missing the loop region comprised between T152 and K160)
T3 sequence: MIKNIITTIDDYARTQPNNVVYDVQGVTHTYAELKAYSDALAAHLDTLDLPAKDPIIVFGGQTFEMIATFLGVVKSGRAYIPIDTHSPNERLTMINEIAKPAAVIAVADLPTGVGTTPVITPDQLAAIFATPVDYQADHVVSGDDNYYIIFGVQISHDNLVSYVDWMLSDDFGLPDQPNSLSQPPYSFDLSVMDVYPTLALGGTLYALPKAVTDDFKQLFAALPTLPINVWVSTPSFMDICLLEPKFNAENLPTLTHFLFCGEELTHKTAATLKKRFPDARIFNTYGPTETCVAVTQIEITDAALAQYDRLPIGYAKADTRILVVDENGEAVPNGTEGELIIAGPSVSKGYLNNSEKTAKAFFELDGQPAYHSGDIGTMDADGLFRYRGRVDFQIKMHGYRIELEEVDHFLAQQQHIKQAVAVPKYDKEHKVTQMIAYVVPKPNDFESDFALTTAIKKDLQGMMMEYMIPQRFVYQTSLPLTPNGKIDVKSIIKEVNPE

T4: L. plantarum AcpS, full-length wild type, C-terminal His6 tag (Lactiplantibacillus plantarum, UniProt Q88Z44 1-120)
T4 construct: AcpS (acyl-carrier protein synthase) of Lactiplantibacillus plantarum, full-length wild type, cloned in pT7-7 (NdeI/PstI); AcpS is a trimer in the crystal structure of the complex (PDB 7R49); also called LpAcpS; acyl-carrier protein synthase; source: E. coli BL21 (DE3), purified (Ni-NTA, Superdex 200 SEC)
T4 sequence (looked up): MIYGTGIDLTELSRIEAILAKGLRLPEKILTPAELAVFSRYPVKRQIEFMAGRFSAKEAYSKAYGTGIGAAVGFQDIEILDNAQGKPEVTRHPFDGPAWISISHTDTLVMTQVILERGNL


Assays:
[1] = target: T1, DltA-∆P-loop mutant, C-terminal His6 tag; experiment: MST; one protein labelled with NHS red fluorescent dye (RED-NHS Monolith NT kit); Hepes 25 mM pH 7.5, NaCl 300 mM, Tween20 0.05%; 22 °C; triplicate; conditions: both partners purified
[2] = target: T2, L. plantarum DltA, full-length wild …; experiment: as above; conditions: both partners purified
[3] = target: T3, DltA-∆P-loop mutant, C-terminal His6 tag; experiment: MST
[4] = target: T4, L. plantarum AcpS, full-length wild …; experiment: SEC; purified AcpS mixed with apo- or holo-DltC1, mixture subjected to size exclusion chromatography; conditions: both partners purified
[5] = target: L. plantarum DltC1, full-length wild type, C-terminal His6 tag (Lactiplantibacillus plantarum) (UniProt Q88VM8); experiment: crystal structure; AcpS/DltC1 complex at 4.8 mg/ml, sitting-drop vapor diffusion at 293 K, 20% PEG3350 and 0.2 M sodium malonate; 1.88 Å
[6] = target: the molecule itself; experiment: as above

Row | binding result [1] | Kd [2] [µM] | Kd [3] [µM] | binding result [4] | stoichiometry N (AcpS:DltC1 (3:3)) [5] | Binder | stoichiometry N [6]
1 | binds | 5.74 | 0.18 |  |  | holo-DltC1 (DltC1 fully modified by phosphopantetheine), C-terminal His6 tag (natural protein, Lactiplantibacillus plantarum, UniProt Q88VM8 1-80, looked up, phosphopantetheine (Ppant) covalently attached to Ser38, confirmed by mass spectrometry, DltC1 (nc8_1734) of Lactiplantibacillus plantarum, wild type, co-expressed with wild type AcpS from pRSF-Duet1; also called Ppant-DltC1; Ppant-modified DltC; source: E. coli BL21 (DE3), co-expressed with LpAcpS from pRSF-Duet1, purified (Ni-NTA, SEC); 15N-labelled in M9 minimal media for NMR) MTMDDTKATVLSILADLTGEDVSSNMDVNLFDEGILDSMGSVQLLLELQNQLGIEVPVSEFQRSEWDTPAKIVAKVENLQ | 
2 | binds | 8.89 |  | binds |  | apo-DltC1-S38A, C-terminal His6 tag (natural protein, Lactiplantibacillus plantarum, UniProt Q88VM8 1-80, looked up, DltC1 (nc8_1734) of Lactiplantibacillus plantarum, full length, catalytic Ser38 mutated to Ala, cloned in pET-28a(+); source: E. coli BL21 (DE3)-RIPL, purified (Ni-NTA, SEC); 15N- or 13C,15N-labelled in M9 minimal media for NMR) MTMDDTKATVLSILADLTGEDVSSNMDVNLFDEGILDAMGSVQLLLELQNQLGIEVPVSEFQRSEWDTPAKIVAKVENLQ | 
3 |  |  |  |  | 1 | L. plantarum AcpS, full-length wild type, untagged (enzyme, Lactiplantibacillus plantarum, UniProt Q88Z44 1-120, looked up, AcpS of Lactiplantibacillus plantarum, full-length wild type, pT7-7 with a stop codon before the TEV cleavage site and the His6 tag; also called untagged LpAcpS^WT; untagged AcpS; source: E. coli BL21 (DE3); lysate mixed with Ni-NTA-purified DltC1, complex purified (Ni-NTA, Superdex 200 SEC)) MIYGTGIDLTELSRIEAILAKGLRLPEKILTPAELAVFSRYPVKRQIEFMAGRFSAKEAYSKAYGTGIGAAVGFQDIEILDNAQGKPEVTRHPFDGPAWISISHTDTLVMTQVILERGNL | 3
